What was measured:
Assay in all cases: ELISA
Conditions in all cases: both partners purified
[1] = molecular target: RaTG13-CoV RBD-His8-SpyTag003 (Bat coronavirus RaTG13, heterogeneous N-linked glycosylation)
[2] = molecular target: SHC014-CoV RBD-His8-SpyTag003 (Bat SARS-like coronavirus RsSHC014, heterogeneous N-linked glycosylation)
[3] = molecular target: Rs4081-CoV RBD-His8-SpyTag003 (Bat SARS-like coronavirus Rs4081, heterogeneous N-linked glycosylation)
[4] = molecular target: pangolin17 (pang17)-CoV RBD-His8-SpyTag003 (Pangolin coronavirus pang17, heterogeneous N-linked glycosylation)
[5] = molecular target: RmYN02-CoV RBD-His8-SpyTag003 (Bat coronavirus RmYN02, heterogeneous N-linked glycosylation)
[6] = molecular target: Rf1-CoV RBD-His8-SpyTag003 (Bat SARS-like coronavirus Rf1, heterogeneous N-linked glycosylation)
[7] = molecular target: WIV1-CoV RBD-His8-SpyTag003 (Bat SARS-like coronavirus WIV1, heterogeneous N-linked glycosylation)
[8] = molecular target: Yunnan2011 (Yun11)-CoV RBD-His8-SpyTag003 (Bat coronavirus Cp/Yunnan2011, heterogeneous N-linked glycosylation)
[9] = molecular target: BM48-31-CoV RBD-His8-SpyTag003 (Bat coronavirus BM48-31, heterogeneous N-linked glycosylation)
[10] = molecular target: BtKY72-CoV RBD-His8-SpyTag003 (Bat coronavirus BtKY72, heterogeneous N-linked glycosylation)

Measured: binding result

B1: EY6A (antibody, V domains shown)
VH: EVQLVESGGGVVQPGRSLRLSCAASAFTFSSYDMHWVRQAPGKGLEWVAVISYDGSNKYYADSVKGRFTISRDNSKNTLYLQMNSLRAEDTAVYYCAKDGGKLWVYYFDYWGQGTLVTVSS
VL: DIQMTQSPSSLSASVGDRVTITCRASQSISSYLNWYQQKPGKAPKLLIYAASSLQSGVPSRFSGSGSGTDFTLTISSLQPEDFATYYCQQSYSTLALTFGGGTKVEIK
binds: [1] | [2] | [3] | [4] | [5] | [6] | [7] | [8] | [9] | [10]

Reference: article PMC9240080 (Nature Communications, 2022)
